Results from PMC9532426, “Autophagy induction promoted by m6A reader YTHDF3 through translation upregulation of FOXO3 mRNA”.

Biological target: T1, YTHDF3 (mouse, UniProt Q8BYK6 1-585)
T1 sequence: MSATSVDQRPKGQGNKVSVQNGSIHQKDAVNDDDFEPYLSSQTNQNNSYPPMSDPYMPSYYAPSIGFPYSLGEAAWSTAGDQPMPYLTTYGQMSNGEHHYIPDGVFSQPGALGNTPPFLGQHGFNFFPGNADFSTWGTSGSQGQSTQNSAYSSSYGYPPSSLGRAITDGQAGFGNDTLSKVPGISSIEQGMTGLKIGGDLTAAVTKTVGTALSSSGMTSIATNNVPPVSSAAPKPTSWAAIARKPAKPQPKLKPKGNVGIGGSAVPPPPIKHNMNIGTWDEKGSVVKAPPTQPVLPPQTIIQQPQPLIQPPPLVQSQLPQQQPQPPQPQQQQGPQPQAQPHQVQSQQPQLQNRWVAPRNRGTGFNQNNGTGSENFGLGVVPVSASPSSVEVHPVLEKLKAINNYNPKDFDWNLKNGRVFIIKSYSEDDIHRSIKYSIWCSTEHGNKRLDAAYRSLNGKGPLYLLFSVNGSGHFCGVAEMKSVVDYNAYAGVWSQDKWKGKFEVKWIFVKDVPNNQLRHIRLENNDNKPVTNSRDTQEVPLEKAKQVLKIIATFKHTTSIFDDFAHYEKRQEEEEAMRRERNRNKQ
Experiment: EMSA; LightShift Chemiluminescent RNA EMSA kit; 20 pmol RNA, 6 ug YTHDF3, room temperature 30 min; 6% TBE gel, 0.5x TBE; buffer salt and pH not stated
Details: protein: commercial; label: 5' biotin

B1: Foxo3-CDS-m6A-biotin-RNAProbe 1 (ssRNA)
RNA: GUGACUUGGACCUGGAC
modifications: m6A at A4, A10, A16 (from text sites 2151, 2158, 2163 nt; the modified probe line is not in the material)
binding result: binds
